From the RNAGym collection of RNA variant scans (doi:10.7554/elife.90254)

B1: LINE1-full (parent)
chain: UACGUAGGUGGUUUUCCCCUGAUAGUGCUAAGGGGGCCUGGAAGUUUGGACUGGGCAGAGCUCAACACAGCGUGGCAAAGUGGCUGUGGCUAGACUGCCUCUCUGGAUUCCUCGUCACUCAGCAGGGCAUCUCUGAGAGAAAUGCC

Variants of: B1
Experiment: self-cleavage, relative activity (ratio to wild type); higher = more cleavage; in vitro, sequencing; the parent is a self-cleaving ribozyme

| Variant | self-cleavage |
| --- | --- |
| UACGUAGGUGGUUUUCCCCUGAUAGUGCUAAGGGGGCCUGGAAGUUUGGACCGGGCAGAGCUCAACACAGCGUGGCAAAGUGGCUGUGGCUAGACUGCCUCUCUGGAUUCCUCGUCACUCAGCAGGGCUUCUCUGAGAGAAAUGCC [U52C A129U] | 1.61 |
| UACGUAGGUGGUUUUCCCCUGAUAGUGCUAAGGGGGCCUGGAAGUUUGGACCGGGCAGAGCUCAACACAGCGUGGCAAAGUGGCUGUGGCUAGACUGCCUCUCUGGAUUCCUUGUCACUCAGCAGGGCAUCUCUGAGAGAAAUGCC [U52C C113U] | 0.99 |
| UACGUAGGUGGUUUUCCCCUGAUAGUGCUAAGGGGGCCUGGAAGUUUGGACCGGGCAGAGCUCAACACAGCGUGGCAAAGUGGCUGUGGCUAGACUGCCUCUCUGGAUUCCUCGUCACUCAGCAGGGCAUCUCUGAGAGAAAUGCU [U52C C146U] | 2.19 |
| UACGUAGGUGGUUUUCCCCUGAUAGUGCUAAGGGGGCCUGGAAGUUUGGACCGGGCAGAGCUCAACACAGCGUGACAAAGUGGCUGUGGCUAGACUGCCUCUCUGGAUUCCUCGUCACUCAGCAGGGCAUCUCUGAGAGAAAUGCC [U52C G75A] | 0.9 |
| UACGUAGGUGGUUUUCCCCUGAUAGUGCUAAGGGGGCCUGGAAGUUUGGACCGGGCAGAGCUCCACACAGCGUGGCAAAGUGGCUGUGGCUAGACUGCCUCUCUGGAUUCCUCGUCACUCAGCAGGGCAUCUCUGAGAGAAAUGCC [U52C A64C] | 0.51 |
| UACGUAGGUGGUUUUCCCCUGAUAGUGCUAAGGGGGCCUGGAAGUUUGGACCGGGCAGAGCUCAACACAGCGUGGCAAAGUGGCUGUGGCUAGACUGCCUCUCUGGAUUCCUCGUCCCUCAGCAGGGCAUCUCUGAGAGAAAUGCC [U52C A117C] | 0.42 |
| UACGUAGGUGGUUUUCCCCUGAUAGUGCUAAGGGGGCCUGGAAGUUUGGACCGGGCAGAGCUCAACACAGCGUGGCAAAGUGGCUGUGGCUAGACUGCCUCUCUGGAUUCCUCGUCGCUCAGCAGGGCAUCUCUGAGAGAAAUGCC [U52C A117G] | 1.04 |
| UACGUAGGUGGUUUUCCCCUGAUAGUGCUAAGGGGGCCUGGAAGUUUGGACCGGGCAGAGCUCAACACAGCGUGGCAAAGUGGCUGUGGCUAGACUGCCUCUCUGGAUUCCUCGUCACUCAGCAGGGCAUCUCUGUGAGAAAUGCC [U52C A136U] | 0.81 |
| UACGUAGGUGGUUUUCCCCUGAUAGUGCUAAGGGGGCCUGGAAGUUUGGACCGGGCAGAGCUCAACACAGCGUGGCAAAGUGGCUGUGGCUAGACUGCCUCUCUGGAUUCCUCGUCACUCAGCAGGGCAUCUCUGGGAGAAAUGCC [U52C A136G] | 2.9 |
| UACGUAGGUGGUUUUCCCCUGAUAGUGCUAAGGGGGCCUGGAAGUUUGGACCGGGCAGAGCUCAACACAGCGUUGCAAAGUGGCUGUGGCUAGACUGCCUCUCUGGAUUCCUCGUCACUCAGCAGGGCAUCUCUGAGAGAAAUGCC [U52C G74U] | 1.79 |
| UACGUAGGUGGUUUUCCCCUGAUAGUGCUAAGGGGGCCUGGAAGUUUGGACCGGGCAUAGCUCAACACAGCGUGGCAAAGUGGCUGUGGCUAGACUGCCUCUCUGGAUUCCUCGUCACUCAGCAGGGCAUCUCUGAGAGAAAUGCC [U52C G58U] | 0.04 |
| UACGUAGGUGGUUUUCCCCUGAUAGUGCUAAGGGGGCCUGGAAGUUUGGACCGGGCAGAGCUCAACACAGCGUGGCAAAGUGGCUGUGGCUAGACUGCCUCUCUGGAUUCCUCGUCACUCAGCAGGGAAUCUCUGAGAGAAAUGCC [U52C C128A] | 0.71 |
| UACGUAGGUGGUUUUCCCCUGAUAGUGCUAAGGGGGCCUGGAAGUUUGGACCGGGCAGAGCUCAACACAGCGUGGCAAAGUGGCUGUGGCUAGACUGCCUCUCUGGAUUCCUCGUCACUCAGCAGGGCAUCUCUGAGAGAAGUGCC [U52C A142G] | 1.02 |
| UACGUAGGUGGUUUUCCCCUGAUAGUGCUAAGGGGGCCUGGAAGUUUGGACCGGGCAGAGCUCAACACAGCGUGGCAAAGUGGCUGUGGCUAGACUGCCUCUCUGGAUUCAUCGUCACUCAGCAGGGCAUCUCUGAGAGAAAUGCC [U52C C111A] | 1.14 |
| UACGUAGGUGGUUUUCCCCUGAUAGUGCUAAGGGGGCCUGGAAGUUUGGACCGGGCAGAGCUCAACACAGCGUGGCAAAGUGGCUGUGGCUAGACUGCCUCUCUGGUUUCCUCGUCACUCAGCAGGGCAUCUCUGAGAGAAAUGCC [U52C A107U] | 1.63 |
| UACGUAGGUGGUUUUCCCCUGAUAGUGCUAAGGGGGCCUGGAAGUUUGGACCGGGCAGAGCUCAACACAGCGUGGCAGAGUGGCUGUGGCUAGACUGCCUCUCUGGAUUCCUCGUCACUCAGCAGGGCAUCUCUGAGAGAAAUGCC [U52C A78G] | 1 |
| UACGUAGGUGGUUUUCCCCUGAUAGUGCUAAGGGGGCCUGGAAGUUUGGACCGGGCAGAGCUCAACACAGCGUGGCAAAGUGGCUGUGGCUAGACUGCCUCUCUGUAUUCCUCGUCACUCAGCAGGGCAUCUCUGAGAGAAAUGCC [U52C G106U] | 0.8 |
| UACGUAGGUGGUUUUCCCCUGAUAGUGCUAAGGGGGCCUGGAAGUUUGGACCGGGCAGAGCUCAACACAGCGUGGCAAAAUGGCUGUGGCUAGACUGCCUCUCUGGAUUCCUCGUCACUCAGCAGGGCAUCUCUGAGAGAAAUGCC [U52C G80A] | 1.82 |
| UACGUAGGUGGUUUUCCCCUGAUAGUGCUAAGGGGGCCUGGAAGUUUGGACCGGGCAGAGCUCAACGCAGCGUGGCAAAGUGGCUGUGGCUAGACUGCCUCUCUGGAUUCCUCGUCACUCAGCAGGGCAUCUCUGAGAGAAAUGCC [U52C A67G] | 0.61 |
| UACGUAGGUGGUUUUCCCCUGAUAGUGCUAAGGGGGCCUGGAAGUUUGGACCGGGCAGAGCUCAACACAGCGUGGCAAAGUGGCUGUGGCUAGACUGCCUCUCUGGAUUCCUCGUCACUCAGCGGGGCAUCUCUGAGAGAAAUGCC [U52C A124G] | 0.48 |

| Variant | self-cleavage |
| --- | --- |
| UACGUAGGUGGUUUUCCCCUGAUAGUGCUAAGGGGGCCUGGAAGUUUGGACCGGGCAGAGCUCAACACAGCGUGGCAAAGUGGCUGUGGCUAGACUGCCUCUCUGGAUUCCUCGUCACUCAGCUGGGCAUCUCUGAGAGAAAUGCC [U52C A124U] | 1.48 |
| UACGUAGGUGGUUUUCCCCUGAUAGUGCUAAGGGGGCCUGGAAGUUUGGACCGGGCAGAGCUCAACACAGCGUGGCAAAGUAGCUGUGGCUAGACUGCCUCUCUGGAUUCCUCGUCACUCAGCAGGGCAUCUCUGAGAGAAAUGCC [U52C G82A] | 1.7 |
| UACGUAGGUGGUUUUCCCCUGAUAGUGCUAAGGGGGCCUGGAAGUUUGGACCGGGCAGAGCUCAACACAGCGUGGCAAAGUGGCUGUGGCUAGACUGCCUCUCUGGAUUCCUCGUCACUCUGCAGGGCAUCUCUGAGAGAAAUGCC [U52C A121U] | 1.5 |
| UACGUAGGUGGUUUUCCCCUGAUAGUGCUAAGGGGGCCUGGAAGUUUGGACCGGGCAGAGCUCAACACAGCGUGGCAAGGUGGCUGUGGCUAGACUGCCUCUCUGGAUUCCUCGUCACUCAGCAGGGCAUCUCUGAGAGAAAUGCC [U52C A79G] | 0.75 |
| UACGUAGGUGGUUUUCCCCUGAUAGUGCUAAGGGGGCCUGGAAGUUUGGACCGGGCAGAGCUCAACACAGCGUGGCAAAGUGGUUGUGGCUAGACUGCCUCUCUGGAUUCCUCGUCACUCAGCAGGGCAUCUCUGAGAGAAAUGCC [U52C C84U] | 0.15 |
| UACGUAGGUGGUUUUCCCCUGAUAGUGCUAAGGGGGCCUGGAAGUUUGGACCGGGCAGAGCUCAGCACAGCGUGGCAAAGUGGCUGUGGCUAGACUGCCUCUCUGGAUUCCUCGUCACUCAGCAGGGCAUCUCUGAGAGAAAUGCC [U52C A65G] | 0.07 |
| UACGUAGGUGGUUUUCCCCUGAUAGUGCUAAGGGGGCCUGGAAGUUUGGACCGGGCAGAGCUCAACACAGCUUGGCAAAGUGGCUGUGGCUAGACUGCCUCUCUGGAUUCCUCGUCACUCAGCAGGGCAUCUCUGAGAGAAAUGCC [U52C G72U] | 0.41 |
| UACGUAGGUGGUUUUCCCCUGAUAGUGCUAAGGGGGCCUGGAAGUUUGGACCGGGCAGAGCUCAACACAGCGUGGCAAAGUGGCUGUGGCUAGACUGCCUCUCUGGAUUCCUCGUCACUCAGCAGGGCAUCUCUGAGUGAAAUGCC [U52C A138U] | 1.5 |
| UACGUAGGUGGUUUUCCCCUGAUAGUGCUAAGGGGGCCUGGAAGUUUGGACCGGGCAGAGCUCAACACAGCGUGGCAAAGUGGCUGUGGCUAGACUGCCUCUCUGGAUUCCUCGUCACUCAGCAGGGCAUCUCUGAGGGAAAUGCC [U52C A138G] | 1.48 |
| UACGUAGGUGGUUUUCCCCUGAUAGUGCUAAGGGGGCCUGGAAGUUUGGACCGGGCAGAGCUCAACACAGCGUGGCAAAGUGGCUGUGGCUAGACUGGCUCUCUGGAUUCCUCGUCACUCAGCAGGGCAUCUCUGAGAGAAAUGCC [U52C C98G] | 0.17 |
| UACGUAGGUGGUUUUCCCCUGAUAGUGCUAAGGGGGCCUGGAAGUUUGGACCGGACAGAGCUCAACACAGCGUGGCAAAGUGGCUGUGGCUAGACUGCCUCUCUGGAUUCCUCGUCACUCAGCAGGGCAUCUCUGAGAGAAAUGCC [U52C G55A] | 0.14 |
| UACGUAGGUGGUUUUCCCCUGAUAGUGCUAAGGGGGCCUGGAAGUUUGGACCGGGCAGAGCUCAACACAGCGUGGCAAAGUGGCUGUGGCUAGACUGCCUCUCUGGAUUCCUCGUCACUUAGCAGGGCAUCUCUGAGAGAAAUGCC [U52C C120U] | 1.77 |
| UACGUAGGUGGUUUUCCCCUGAUAGUGCUAAGGGGGCCUGGAAGUUUGGACCGGGCAGAGCUCAACACAGCGUGGCAAAGUGGCUGUGGCUAGACUGCCUCUCUGGAUUCCUCGUCACUCAGCAGGGCAUCUCUGAGAGAUAUGCC [U52C A141U] | 1.14 |
| UACGUAGGUGGUUUUCCCCUGAUAGUGCUAAGGGGGCCUGGAAGUUUGGACCGGGCAGAGCUCAACACAGCGUGGCAAAGUGGCUGUGGCUAGACUGCCUCUCUGGAUUCCUCGUCACUCAGCAGGGCAUCUCUGAGAGAGAUGCC [U52C A141G] | 1.25 |
| UACGUAGGUGGUUUUCCCCUGAUAGUGCUAAGGGGGCCUGGAAGUUUGGACCGGGCAGAGCUCAACACAGAGUGGCAAAGUGGCUGUGGCUAGACUGCCUCUCUGGAUUCCUCGUCACUCAGCAGGGCAUCUCUGAGAGAAAUGCC [U52C C71A] | 0.13 |
| UACGUAGGUGGUUUUCCCCUGAUAGUGCUAAGGGGGCCUGGAAGUUUGGACCGGGCAGAGCUCAACACAGCGUGGCAAAGUGGCUGUGGCUUGACUGCCUCUCUGGAUUCCUCGUCACUCAGCAGGGCAUCUCUGAGAGAAAUGCC [U52C A92U] | 0.52 |
| UACGUAGGUGGUUUUCCCCUGAUAGUGCUAAGGGGGCCUGGAAGUUUGGACCGGGCAGAGCUCAACACAGCGUGGCAAAGUGGCUGUGGCUCGACUGCCUCUCUGGAUUCCUCGUCACUCAGCAGGGCAUCUCUGAGAGAAAUGCC [U52C A92C] | 0 |
| UACGUAGGUGGUUUUCCCCUGAUAGUGCUAAGGGGGCCUGGAAGUUUGGACCGGGCAGAGCUCAACACAGCGUGGCAAAGUGGCUGUGGCUAGACUGCCUCUCUGGAUUCCUCGUCACUCAGCAUGGCAUCUCUGAGAGAAAUGCC [U52C G125U] | 1.15 |
| UACGUAGGUGGUUUUCCCCUGAUAGUGCUAAGGGGGCCUGGAAGUUUGGACCUGGCAGAGCUCAACACAGCGUGGCAAAGUGGCUGUGGCUAGACUGCCUCUCUGGAUUCCUCGUCACUCAGCAGGGCAUCUCUGAGAGAAAUGCC [U52C G53U] | 1.6 |
